The source of these data is the RNAGym collection of RNA variant scans (doi:10.1073/pnas.2313332121).

This sample holds only a part of the variants without activity. Some results are limits rather than exact numbers.

Sequences and labels used below:
B1: TPR 5TU (parent)
chain: GGAUCUUCUCGAUCUAACAAAAAAGACAAAUCUGCCACAAAGCUUGAGAGCAUCUUCGGAUGCAGAGGCGGCAGCCUUCGGUGGCGCGAUAGCGCCAACGUUCUCAACUAUGACACGCAAAACGCGUGCUCCGUUGAAUGGAGUUUAUCAUG

In the series the parent is B1. Kind of series: polymerase ribozyme fitness, log enrichment relative to wild type (log ratio); higher = more active; in vitro selection for triplet polymerase activity. In outline:
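Fitness measures genotype enrichment against wild-type enrichment on a logarithmic scale, with inverse-variance-weighted averaging of replicates. The logarithm is base 2, and genotypes were kept only with ≥10 input reads and ≥1 read per output in Illumina sequencing. The sequenced libraries came from one triplicate in vitro selection round, including frozen incubation at −7 °C, of PCR-built, transcribed mutant libraries of each subunit of a heterodimeric triplet polymerase ribozyme.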
Take G71C C93U C95G C99G A115C: the “polymerase ribozyme fitness (log ratio)” value was -3.95.
Then G58A C116U, with 0.457; and A22U G133C, with -1.46; and C85A A142C, with -3.23.
Turning to A3G A19U U55C G84A, the “polymerase ribozyme fitness (log ratio)” value was -0.956.
In the case of A23G C32G G70A C85G, the “polymerase ribozyme fitness (log ratio)” value is not above -4.2.
For A52C C57U G133U, the “polymerase ribozyme fitness (log ratio)” value is not above -4.2.
For A12C A16G A41C A121U, the “polymerase ribozyme fitness (log ratio)” value is -1.69.
Then U31A G58C C75A C103U U109A A110G, with not above -4.2; and G117U U145G, with -3.12.
With A40C G140U, the “polymerase ribozyme fitness (log ratio)” value is -3.39.
In the case of G50C C75U C85G, the “polymerase ribozyme fitness (log ratio)” value is not above -4.2.
In the case of C63U G68A, the “polymerase ribozyme fitness (log ratio)” value was not above -4.2.
As to A12U C18A C36U C57A C95U A97G A98U C125U, the “polymerase ribozyme fitness (log ratio)” value is -3.95.
Consider A26U C96U A142C, for which the “polymerase ribozyme fitness (log ratio)” value is -3.03.
Then A66C G84A C87U, with not above -4.2; and A21U A29U U61A, with not above -4.2; and U61A A91U, with not above -4.2.
Then A23G G46C G50A G92A C118U A142U, with not above -4.2.
Regarding A19U G48A, the “polymerase ribozyme fitness (log ratio)” value was -1.05.
In the case of G83A C85U A106C C132G G140A, the “polymerase ribozyme fitness (log ratio)” value was not above -4.2.
In the case of A22U A52G A91C U135G, the “polymerase ribozyme fitness (log ratio)” value is not above -4.2.
Then U82G C95A, with -1.03; and C35U C38G U56A, with -1.43.
Turning to U15A C27G U55A C57G G94U C105U G136A G143U, the “polymerase ribozyme fitness (log ratio)” value was not above -4.2.
As to U9A C32A U55G G88U U109A, the “polymerase ribozyme fitness (log ratio)” value was not above -4.2.
U6G A121U: the “polymerase ribozyme fitness (log ratio)” value is -0.506.
With C36U C38A A91U C103A C116A, the “polymerase ribozyme fitness (log ratio)” value was not above -4.2.
Turning to A19G U109G C118G U144A, the “polymerase ribozyme fitness (log ratio)” value is -3.72.
Then A29U C35A A60G C85A G126A, with not above -4.2; and C38U A52G A73U G152U, with -4.12.
Turning to U45A U148G C149G, the “polymerase ribozyme fitness (log ratio)” value is not above -4.2.
In the case of A40C A49C U56A A60C G84A G136A, the “polymerase ribozyme fitness (log ratio)” value was not above -4.2.
For the variant G83U A98C C123U C125U C129A, the “polymerase ribozyme fitness (log ratio)” value is -3.47.
For C5G C96A G117A, the “polymerase ribozyme fitness (log ratio)” value was -0.406.
As to U13C C14U C54A G92A, the “polymerase ribozyme fitness (log ratio)” value was not above -4.2.
For A21C G50A C57A C93A U135G, the “polymerase ribozyme fitness (log ratio)” value was not above -4.2.
Under C105U U109G G133C stands -1.81.
Then A29U G86A C87U C105A C116A U146A, with not above -4.2; and G68A C72U, with -4.15.
Regarding C54G C95U U127G, the “polymerase ribozyme fitness (log ratio)” value is not above -4.2.
For C18G A20C A52G A73U A120G, the “polymerase ribozyme fitness (log ratio)” value is -3.02.
A91G U127A: the “polymerase ribozyme fitness (log ratio)” value is not above -4.2.
Regarding A21G U77G G88C U135G G143U A147C, the “polymerase ribozyme fitness (log ratio)” value was not above -4.2.
On to U55A C63G C76U U78G G92C G136U G141C, for which the “polymerase ribozyme fitness (log ratio)” value is not above -4.2.
For A40C A64G G83U G133C A138C, the “polymerase ribozyme fitness (log ratio)” value is not above -4.2.
As to C63G A110U G136U U148A, the “polymerase ribozyme fitness (log ratio)” value is not above -4.2.
As for C69A U144C, the “polymerase ribozyme fitness (log ratio)” value is -1.07.
As for A52G A107C, the “polymerase ribozyme fitness (log ratio)” value is -3.09.
G70C C75A U109G A137C: the “polymerase ribozyme fitness (log ratio)” value was not above -4.2.
Consider G11U C18G G58C A60C U78C G83A C96U A115C, for which the “polymerase ribozyme fitness (log ratio)” value was not above -4.2.
Under G50A G94C C95G U144C stands not above -4.2.
Regarding A21U G62C A66C G83U A91U G152A, the “polymerase ribozyme fitness (log ratio)” value was not above -4.2.
U61G G136C: the “polymerase ribozyme fitness (log ratio)” value was -2.91.
With C54G U55A A89U C118G A142C, the “polymerase ribozyme fitness (log ratio)” value is -3.87.
Then A26C C27U, with -2.8; and G70U A119C, with -2.09.
U31G G50A C87A U135A: the “polymerase ribozyme fitness (log ratio)” value is not above -4.2.
Regarding A30C A47G G70U U102G G126U G152U, the “polymerase ribozyme fitness (log ratio)” value is not above -4.2.
Take A20G A40C C72U G92A: the “polymerase ribozyme fitness (log ratio)” value is -4.04.
In the case of C57G C76A C95U C129G A137C U144G, the “polymerase ribozyme fitness (log ratio)” value is not above -4.2.
In the case of A40U C87U A89G, the “polymerase ribozyme fitness (log ratio)” value was -3.2.
Regarding U9A C57G G84U, the “polymerase ribozyme fitness (log ratio)” value was not above -4.2.
Then C57U G59A C85U C95G, with -2.02.
Take G42A C87G: the “polymerase ribozyme fitness (log ratio)” value was not above -4.2.
A16G G25U A150G: the “polymerase ribozyme fitness (log ratio)” value is -3.86.
With C76G C103G U104G U135C, the “polymerase ribozyme fitness (log ratio)” value is not above -4.2.
Then U15G A52U, with -1.59; and A12G C14G A22G U61A G71A C99U C123U A142G, with not above -4.2.
For A91G A106G, the “polymerase ribozyme fitness (log ratio)” value was -1.93.
Consider C5G A20C G48C U56A G62A, for which the “polymerase ribozyme fitness (log ratio)” value is -4.11.
Under C103G G128C stands not above -4.2; under C43A U44G A64C C118G C131G A137G G152U, not above -4.2; under C51U G83C A106G A122U A142U, not above -4.2.
As to C38U C95G U102A, the “polymerase ribozyme fitness (log ratio)” value was -2.51.
Consider A12G U45A A52U C93A C118A A120U U145G, for which the “polymerase ribozyme fitness (log ratio)” value is not above -4.2.
Consider U4G G11U A20U A28U U56A C85U C99U U151A, for which the “polymerase ribozyme fitness (log ratio)” value was not above -4.2.
As to U9A U15C G48A G50C C96A G133C, the “polymerase ribozyme fitness (log ratio)” value was not above -4.2.
In the case of G50C G59C G62A G68C C95U U148C, the “polymerase ribozyme fitness (log ratio)” value is not above -4.2.
As to C96G A107G, the “polymerase ribozyme fitness (log ratio)” value was not above -4.2.
With A40C C76U C95A C131G G141U, the “polymerase ribozyme fitness (log ratio)” value is -1.68.
Take C14G C93A: the “polymerase ribozyme fitness (log ratio)” value is -3.68.
For U31G U56A G80C C87G C99G, the “polymerase ribozyme fitness (log ratio)” value is not above -4.2.
